± gives the uncertainty stated by the source.
Assay: self-splicing fitness, log relative to wild type (ln ratio); higher = more splicing; Tetrahymena group I intron in knt gene, E. coli kanamycin selection, DiMSum; sequences stand for … in CUCUCU…GGAGGGAAAAGUUAUCAGGCAUGCACCUGGUAGCUAGUCUUUAAACCAAUAGAUUGCAUCGGUUUAAAAGGCAAGACCGUCAAAUUGCGGGAAAGGGGUCAACAGCCGUUCAGUACCAAGUCUCAGGGGAAACUUUGAGAUGGCCUUGCAAAGGGUAUGGUAAUAAGCUGACGGACAUGGUCCUAACCACGCAGCCAAGUCCUAAGUCAACAGAUCUUCUGUUGAUAUGGAUGCAGUUCACAGACUAAAUGUCGGUCGGGGAAGAUGUAUUCUUCUCAUAAGAUAUAGUCGGACCUCUCCUUAAUGGGAGCUAGCGGAUGAAGUGAUGCAACACUGGAGCCGCUGGGAACUAAUUUGUAUGCGAAAGUAUAUUGAUUAGUUUUGGAGUACUCGUGGUCG
Method in brief: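 Colonies from six replicate transformations of E. coli BL21(DE3) were pooled and amplicon-sequenced on an Illumina HiSeq 2500. The library placed an intron with all eight P1ex-region nucleotides randomised inside the knt kanamycin-resistance gene on pET-22b(+), and cells grew overnight at 37°C or 30°C on LB agar with or without 25 μg/mL kanamycin (plus 100 μg/mL carbenicillin, 50 μM IPTG, 0.2% rhamnose). Fitness is the DiMSum error-weighted combination of wild-type-normalised replicate fold changes, kanamycin versus none.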

| Sequence | self-splicing fitness (ln) (30 °C) | self-splicing fitness (ln) (37 °C) |
| --- | --- | --- |
| UCGGAGCAAUAUUACGGCGC | -2.09 ± 0.31 | – |
| UCGGAGCAAUAUUACGGGAG | – | -2.24 ± 0.44 |
| UCGGAGCAAUAUUACGGUAU | -3.24 ± 0.35 | -2.16 ± 0.26 |
| UCGGAGCAAUAUUACGUAAU | – | -1.86 ± 0.33 |
| UCGGAGCAAUAUUACGUCAU | – | -2.37 ± 0.25 |
| UCGGAGCAAUAUUACGUCGU | -1.37 ± 0.25 | -1.73 ± 0.3 |
| UCGGAGCAAUAUUACGUGCA | -0.902 ± 0.17 | -1.03 ± 0.25 |
| UCGGAGCAAUAUUACGUUGG | -2.09 ± 0.17 | -1.77 ± 0.23 |
| UCGUAGCAAUAUUACGACCA | -1.35 ± 0.3 | – |
| UCGUAGCAAUAUUACGAUGG | -1.88 ± 0.12 | -1.07 ± 0.14 |
| UCGUAGCAAUAUUACGCAUG | -2.33 ± 0.18 | -0.84 ± 0.16 |
| UCGUAGCAAUAUUACGCCAU | – | -0.949 ± 0.45 |
| UCGUAGCAAUAUUACGCCGU | -1.52 ± 0.14 | -0.646 ± 0.16 |
| UCGUAGCAAUAUUACGGCAG | -2.75 ± 0.13 | -2.07 ± 0.15 |
| UCGUAGCAAUAUUACGGCGA | -1.85 ± 0.37 | -0.98 ± 0.2 |
| UCGUAGCAAUAUUACGGCUA | -0.508 ± 0.32 | -1.81 ± 0.23 |
| UCGUAGCAAUAUUACGGGAA | -1.71 ± 0.2 | -1.06 ± 0.16 |
| UCGUAGCAAUAUUACGGGUC | -3.02 ± 0.26 | -4.36 ± 0.46 |
| UCGUAGCAAUAUUACGGUGC | -3.62 ± 0.33 | -3.15 ± 0.47 |
| UCGUAGCAAUAUUACGGUGG | -2.84 ± 0.098 | -1.31 ± 0.086 |
| UCGUAGCAAUAUUACGUCUC | -2.93 ± 0.19 | -2.29 ± 0.22 |
| UCGUAGCAAUAUUACGUUAU | -4.46 ± 0.42 | -2.64 ± 0.34 |
| UCGUAGCAAUAUUACGUUGU | -4.46 ± 0.46 | -2.43 ± 0.23 |
| UCUAAGCAAUAUUACGAAAA | – | -1.34 ± 0.29 |
| UCUAAGCAAUAUUACGACCG | -0.676 ± 0.14 | -0.00302 ± 0.22 |
| UCUAAGCAAUAUUACGAGCA | -1.38 ± 0.15 | -0.145 ± 0.15 |

| Sequence | self-splicing fitness (ln) (30 °C) | self-splicing fitness (ln) (37 °C) |
| --- | --- | --- |
| UCUAAGCAAUAUUACGAGGC | -2.85 ± 0.31 | -2.58 ± 0.38 |
| UCUAAGCAAUAUUACGAUAC | -2.38 ± 0.25 | -2.95 ± 0.47 |
| UCUAAGCAAUAUUACGAUUA | -2.61 ± 0.33 | -1.94 ± 0.34 |
| UCUAAGCAAUAUUACGCAAG | -2.85 ± 0.4 | -1.86 ± 0.34 |
| UCUAAGCAAUAUUACGCACA | -2.26 ± 0.39 | -0.556 ± 0.47 |
| UCUAAGCAAUAUUACGCAGU | -1.86 ± 0.16 | -1.24 ± 0.15 |
| UCUAAGCAAUAUUACGCCCU | -2.09 ± 0.24 | -1.78 ± 0.25 |
| UCUAAGCAAUAUUACGCCGA | -1.12 ± 0.19 | -0.156 ± 0.2 |
| UCUAAGCAAUAUUACGCGGC | – | -1.59 ± 0.36 |
| UCUAAGCAAUAUUACGCUGU | -2.47 ± 0.18 | -2.59 ± 0.21 |
| UCUAAGCAAUAUUACGCUUA | -2.29 ± 0.21 | -1.75 ± 0.29 |
| UCUAAGCAAUAUUACGGACG | -3.16 ± 0.22 | -1.95 ± 0.28 |
| UCUAAGCAAUAUUACGGAUA | -2.97 ± 0.22 | -1.77 ± 0.19 |
| UCUAAGCAAUAUUACGGGCA | -1.42 ± 0.12 | -0.441 ± 0.12 |
| UCUAAGCAAUAUUACGGGUG | -1.54 ± 0.076 | -0.964 ± 0.099 |
| UCUAAGCAAUAUUACGUCGG | 0.0423 ± 0.067 | 0.627 ± 0.078 |
| UCUAAGCAAUAUUACGUGGC | -3.09 ± 0.19 | -3.11 ± 0.34 |
| UCUAAGCAAUAUUACGUUAG | -2.19 ± 0.1 | -1.04 ± 0.1 |
| UCUCAGCAAUAUUACGACAA | -1.98 ± 0.25 | -1.31 ± 0.27 |
| UCUCAGCAAUAUUACGAGAG | -2.76 ± 0.11 | -1.46 ± 0.11 |
| UCUCAGCAAUAUUACGAGUG | -0.746 ± 0.068 | 0.292 ± 0.086 |
| UCUCAGCAAUAUUACGAUAA | -2.15 ± 0.21 | -1.33 ± 0.21 |
| UCUCAGCAAUAUUACGAUAU | -2.12 ± 0.14 | -1.75 ± 0.18 |
| UCUCAGCAAUAUUACGAUCC | – | -1.66 ± 0.37 |
| UCUCAGCAAUAUUACGAUGG | -0.935 ± 0.11 | -1 ± 0.14 |

Reference: the supplement of paper PMC7877785
